Results as given in a protein production outcome set (Wang et al. 2014).

Assay: label from the status in PepcDB records
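Also: failed if final PepcDB status was selected cloned or expressed and not failed if soluble or beyond.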

For “SESGFTSKDTYLSHFNPRDYLEKYYKFGSRHSAESQILKHLLKNLFKIFCLDGVKGDLLIDIGSGPTIYQLLSACESFKEIVVTDYSDQNLQELEKWLKKEPEAFDWSPVVTYVCDLEGNRVKGPEKEEKLRQAVKQVLKCDVTQSQPLGAVPLPPADCVLSTLCLDAACPDLPTYCRALRNLGSLLKPGGFLVIMDALKSSYYMIGEQKFSSLPLGREAVEAAVKEAGYTIEWFEVISQSYSSTMANNEGLFSLVARKLSRPL”, the protein production was “failed”.

For “MEGSQQTITSKQLVRMLKDASRGSKGKGSGEMKFCFLIGAGASISSGIPSGAKLAWDWLQQIKEDCDGEDFEDWKIEIKMPDQHIEERVGEFYPEIYEKRFGHAPETGYDYIRGLMEGREPSLGYLILANIMVREKHNVVITTNFDNLLEDAIRTYTKEKPFIAGHEALADYVPKRSDRPIILKLHRDLFLQPFSDQLNTDILQAAWESILGKFLSDYHLIVLGYGGNDGSLMNYLLKLKNRKPIYWCVRNTDKATSKSLWNTLSPKAKRLLKNDGYLVPIDDFDRFMYDCYAALGYKFLEGIEKIEKPKSIHEILKPNYARIESIQTQLRQLSQTEEELSKESFQSIKSFLPDSWMWILKANQEKDIDKKDKIYREGIAKYPQDANLLGDYADFLCDICHDYDRAEAYYKRALEADPNHANTLGNYALFLKDVRHDYDQAEAYYKRALAADPNHANNLGNYANFLYNIRCDYDQAETYYKKALEADPNHANTLGNYANFLCDIRHDYDQAEGYYKKALEADPKNAITLGNYALFLNDIRHAYDQAEAYYKRALEVDPKSANKLGNYAHFLITCRGDFKRADSLIQQAFENADNDEETKPLQAKLWFYRYAHYYEEWGAEAEKELAALLNVGAKSIGWNLAPDIELARKNKHPHIEQVEAFAKALTEKAQ”, the protein production was “failed”.

In the case of “GSAQEEQSANEVAVSYSKSLKAAEMDSLQLPVDADGYITIFDGKTFNGWRGYGKDRVPSKWTIEDGCIKFNGSGGGEAQDGDGGDLIFAHKFKNFELEMEWKVSKGGNSGIFYLAQEVTSKDKDGNDVLEPIYISAPEYQVLDNDNHPDAKLGKDNNRQSASLYDMIPAVPQNAKPFGEWNKAKIMVYKGTVVHGQNDENVLEYHLWTKQWTDLLQASKFSQDKWPLAFELLNNCGGENHEGFIGMQDHGDDVWFRNIRVKVLD”, the protein production is reported as “not failed”.

In the case of “MPHDDHEHHHAADSAGAQGRLVWALILTGGFVVFEALAGWKANSLALLTDAVHNLSDVLALGLSWYAMRLTAQPAHAAKTFGYHRAGILAALANSAGLVGVALYILYDAYVRLLSPAPVQADILIGVGGAALLVNAFTAWLVHHGSHDDLNMRSAFLHLLGDVVSTLGAIAAGVAIRYTGLYWLDPAVSVLIALLILWNAKGLMAEVMDILLESTPRDVDMGSMVRDMMQVEGVHGVHHLHVWSISRQLRMLSAHIVTDDIRLSEGEGLQKRVTRLLAQRYGIAHTTLQLESESCQPDSLYCDISRPNHRYHGE”, the protein production is reported as “failed”.

In the case of “MKIYASDEQYKQMNEELDERVESLVSELTLDEKIRLMCQYQEAVPRLGIGKYKHGTEGAHGVAWLGKATVFPQNIGLGCTWNEELMKKIGDVIAEEARVYYQENPEQNGLTIWAPTVDMERDPRWGRTEEAYGEDPYLTGKLTTELIKGMQGDHPFYLKTAATLKHFLANNNEEARTECSVSIDPRNLREYYLKAFEPQVKEGHVQCVMTAYNAVNGTLCNMNPDVNAILKEEWGLQGFVVSDACDVVGSVDDHQFVESYAEAVALSIKNGIDNVTDDEKIIHRAIGDALEQGLLSEEDLDQALKRVFRVRIRLGEFDQENKNPYATVAKEKLCA”, the protein production is reported as “failed”.

With “MLNATAFCLAYAGFAALSLGMDRHYEDVFDRALPRRRRLALRSLEWLGLALSLWASAGAWGWNYGTVEWIGILSLAGLLLIWLLTFWPRAALGAGGACALAAPVLALL” the protein production was “failed”.

With “MWKRTITVPAPYDFAHVLDRLSLDPLMAVDVERQRITVPLHLDGLKIPVVIESIGTKEAPRFVVLAPHSNRQEDILERVSHLFQWQTPLAPVYDHFRTTELAPLFARYEGLPLVLDFDLYFCLMKCFIHQQLHLKVGYRLTERFVKTFGEERDGVWFYPRPEDIAARSYDDLRALQLSRRKAEYIVDVSRLIADGTLRLDDLEQMEDGEVMERLTAIRGIGPWTVQNFLLFGLGRPNVFPPADIGLQRAVERLFQLPKRPTASELALLGERWKPYTSYAALYLWRSIE” the protein production was “failed”.

With “MVEIIPVSTTLELRAADESHVPALHQLVLKNKAWLQQSLDWPQYVTSQEETRKHVQGNILLHQRGYAKMYLIFCQNEMAGVLSFNAIEPINKAAYIGYWLDESFQGQGIMSQSLQALMTHYARRGDIRRFVIKCRVDNQASNAVARRNHFTLEGCMKQAEYLNGDYHDVNMYARIIDAD” the protein production was “not failed”.

For “MQVLHVCSEMFPLLKTGGLADVIGALPAAQIADGVDARVLLPAFPDIRRGVTDAQVVSRRDTFAGHITLLFGHYNGVGIYLIDAPHLYDRPGSPYHDTNLFAYTDNVLRFALLGWVGAEMASGLDPFWRPDVVHAHDWHAGLAPAYLAARGRPAKSVFTVHNLAYQGMFYAHHMNDIQLPWSFFNIHGLEFNGQISFLKAGLYYADHITAVSPTYAREITEPQFAYGMEGLLQQRHREGRLSGVLNGVDEKIWSPETDLLLASRYTRDTLEDKAENKRQLQIAMGLKVDDKVPLFAVVSRLTSQKGLDLVLEALPGLLEQGGQLALLGAGDPVLQEGFLAAAAEYPGQVGVQIGYHEAFSHRIMGGADVILVPSRFEPCGLTQLYGLKYGTLPLVRRTGGLADTVSDCSLENLADGVASGFVFEDSNAWSLLRAIRRAFVLWSRPSLWRFVQRQAMAMDFSWQVAAKSYRELYYRLK”, the protein production was “failed”.

For “MPDGWRKMGVLVFYDLPVVSPEQRLAAVRFHKFLLADGFERMHYSIYARYCGSMERAATYERRVEQALPAVGHVNLLKLTDRQMVGMRKWIRGNYRAPENAEFVPPAQYQLFLEHHHHHH”, the protein production was “failed”.

For “MEPMQVVKQRRDAALNALVSGVPFIRFLNITFDRRGDELTGVLNFDDKLIGNPFLPAIHGGVTAAFLEVTAVITLSWAHLFERIESGDLAPEDILTDENMRFPKTIDFTIDYLRSGLPRDAYARAYISRAGRRYASVRVEAWQDHHDKLYAQGTGHFLMPLEHHHHHH”, the protein production was “failed”.

With “MGGGDGRRIDAFVSYSRAADSRLAPSIQRGLARLAKKWYRTRALNVFRDQTDLSASHALGASIERALADARFFVLLASPAAAESKWVAKEIEFWQRNRTSDTFLVALTDGTIRWDDEAGDFDWSVTDALPRSLSGYFEAEPLWQDLTWSRDADRLSLWHAGFRDAVATLAAPIHGSSKRALDNAEVKEHRALLLVGALATALILTLAVSFGIQYWFATAERDRANANARDATVMSAIQRAQVELADAETGYDVSAYRRLMAARSLAGRPSVEGAAYDAALDAAYSRPNLLRVTEVDSGPDSRAAMTVDGGRVAFGGKEQPTLWSPGTGRPSGPALEAAETTDSKALALAFSRDGKRLAAAYEAAVVLWDVASGKKINEFATDRRTTTSLALSPDGTTVAVAGGGLRIWDAGSGRRIGEPLGVTGDRVVFSPDGRKLAFDALNDGGSEVHVRGVGAEGAGEVVIPYPHDVISGIAFTPDTDALAVGTEDGGLRLWDPDSGAAEGRAMSGHQGAIRAIAFAAGGSRIATAGADRTIRQWNAETGSPIGFPLTGHAGPVDFIAFSRGGSELVSLGEDATLRRWDAGNALLRTGPDDASAPDALAVAPRGAKVAVGGREGVRVFNQETGVQVAALDLPQGVLSLSYSPDGTSLLIVSPDALRLWEEGAEARTVTLDSSVGPVAGAAFMPHGRQIVVGSYAGKLLFEDLDDEATGTPGASIDITCAARHLAVSQDGMQVAYACDDTGGVADAEAGGVRTFEAEDRVSALVISPDGRTLILGTLDGTLWRLEHGAEALVGVGVHRGAVRSVAYGPDGRWFASAGEDGSVVVHPHGAREISARIPAHTGPVEAVAFSGDGSRLISLGADKAARVWHVFRDPPGDLCERITYNMSESDWKKWISDSFGYRDQCAGKPRAHG” the protein production was “failed”.

In the case of “KVIIAIDAGHGGQDPGAIGPNGTKEKNVTIAIARKLRALLNADPQFKPVLTRDGDYFISVMGRSEVARKQNANFLVSIHADAAPNRDATGASVWVLSNRRANSEMAGWLEQHEKQSELLGGAGDVLANSQADPYLSQAVLDLQFGHSQRVGYDVATNVLSQLQRIGNLHKRRPEHASLGVLRSPDIPSILVETGFISNNGEERLLGSDDYQEQIAEAIYNGLRNYFMQHPLQSAPRGEAAQTASAAAPGGMLIN”, the protein production is reported as “failed”.

In the case of “MRKSDREAFLSSVLGNEQPPAHLARTVIEEKLRNAIIDGSLPSGTALRQQELATLFGVSRMPVREALRQLEAQSLLRVETHKGAVVAPLITEDAVDAYALRILLESEALRLSIPLLDADDLAAAASYIEQLEVETDFGQIGRLNRMFHLSLYAKTHNKRLMRLVEEGLNEEERFLRFNLSSMGLGKLSQDDHWQLLRLAEQKAVEPCVEALQYHLNRGVQAVTQYLQSQKAGNVKPARTKKNTPA”, the protein production is reported as “not failed”.

In the case of “MLSFIAVGLLARLAVARGEVKYGCTKHELRRLSRRGRLLLVVLWPLVAAFLLAIFPNVPSRNIFGDLILIIAAVLPAALLAFLVNAMLERTRFKVVPRRSPKAHSR”, the protein production is reported as “failed”.

In the case of “MIGVVATLKVQPAKAAEFEKVFLDLAAKVKANEPGCLVYQLTRSKTEEGVYKVLELYASMDALKHHGGTDYFKAAGAAMGPTMAGAPVIEYLDAVE”, the protein production is reported as “not failed”.

In the case of “MLRLVKTRPSLRLGPSETAVIRVLDQERIDRINQDLTRAWKADVETTCVLSGILLLPCLILICLLDGPLFAKVILCTFLCLMVGGWCIAKWLNAQAQPRTDITGVKVEQLEGYFDRRWVRNGGKPYIEYSFGKHWLHIQTSACSFFSGDTQLKLNRRYRVDALYLTGHSSAYTGYYLLEETFKEIFDDSDLSAAEKIQIAEREKRINQDLEEQHKRLYRLYRNPQGELEAVAIGFNFAACFLTVLWSFCVSLYWVTGLTLAALGLILLIPDTGAGHPWFALGWLLSAGVFGACGNLWRERQVLSKGFVQVDALLSCNPDQAKVQYKRKVEEAAPGFGQ”, the protein production is reported as “failed”.

For “MAPLQTPLCSEIGIDHPVVQAPVGSVSTPSLAAAVADAGGLGMLAMSWREADAIRDAYTDAANATDGVVGVNVVLDESTGVLSPSACLDACLDAGAPVVSFSFGDAGPYIDRVHEVGGTVMVTVASAAEARAAVDAGADVVVAQGREAGGHVQSDVTTMSLLPRVADGVPVPVVAAGGLGDGRGLAAALTLDADGGWFGTRFVATEESGAHEAYRQQIVDAPETATRFTDLFDRGWPDQPHRVLETDEVRQQAGADSGGESDGSDPEQIAQMPDGEPISRFADMPPLAGMTGDVEALPHYAGQSTGLAQDVRPAGEVVARLVSDARAALADASAAAE”, the protein production was “failed”.

With “AVGSGSEGFIVRLPAALLFKEGGIEVENSDGFLFVKRMAEIVNRLPKDVHVEVRGHTDTLPLPAQAPQDKLELTAKRALSVSKLLVKEGIDPKRITTVGRGDQDPLTHARTPEAQESNRRVDIYLYPKE” the protein production was “not failed”.

With “FLSTRDNVDELRKIENKSSFVSADNMPEYVKGAFISMEDERFYNHHGFDLKGTTRALFSTISDRDVQGGSTITQQVVKNYFYDNDRSFTRKVKELFVAHRVEKQYNKNEILSFYLNNIYFGDNQYTLEGAANHYFGTTVNKNSTTMSHITVLQSAILASKVNAPSVYNINN” the protein production was “failed”.

For “MQTDEKLHVLLADDDPIMLARLSRQLEADGHHVASRRDGETALAYALEHQPEMVITDWHMKPMNGLELCRALRESALGGNVYIVMLTASESEDALVEAFGAGIDDYVIKPPSVRVLKARIRAGQRIITLHKKLARERKEIERYSSELAAANRRLELMAHTLEHHHHHH”, the protein production was “failed”.
